In article PMC4227695, “Combining Anti-ERBB3 Antibodies Specific for Domain I and Domain III Enhances the Anti-Tumor Activity over the Individual Monoclonal Antibodies” (PLoS ONE, 2014) one finds binding result and Kd data, which are given here for four molecules.

The target in assay [1] is T1, ERBB3 on BT-474 cells (Homo sapiens, UniProt P21860).
T1 construct: ERBB3/HER3 receptor on the surface of BT-474 breast cancer cells; Also used for the functional rows, where the cells were BT-474, NCI-N87 and ACHN; also called HER3; source: endogenous, BT-474 cells
T1 sequence (P21860 20-1342): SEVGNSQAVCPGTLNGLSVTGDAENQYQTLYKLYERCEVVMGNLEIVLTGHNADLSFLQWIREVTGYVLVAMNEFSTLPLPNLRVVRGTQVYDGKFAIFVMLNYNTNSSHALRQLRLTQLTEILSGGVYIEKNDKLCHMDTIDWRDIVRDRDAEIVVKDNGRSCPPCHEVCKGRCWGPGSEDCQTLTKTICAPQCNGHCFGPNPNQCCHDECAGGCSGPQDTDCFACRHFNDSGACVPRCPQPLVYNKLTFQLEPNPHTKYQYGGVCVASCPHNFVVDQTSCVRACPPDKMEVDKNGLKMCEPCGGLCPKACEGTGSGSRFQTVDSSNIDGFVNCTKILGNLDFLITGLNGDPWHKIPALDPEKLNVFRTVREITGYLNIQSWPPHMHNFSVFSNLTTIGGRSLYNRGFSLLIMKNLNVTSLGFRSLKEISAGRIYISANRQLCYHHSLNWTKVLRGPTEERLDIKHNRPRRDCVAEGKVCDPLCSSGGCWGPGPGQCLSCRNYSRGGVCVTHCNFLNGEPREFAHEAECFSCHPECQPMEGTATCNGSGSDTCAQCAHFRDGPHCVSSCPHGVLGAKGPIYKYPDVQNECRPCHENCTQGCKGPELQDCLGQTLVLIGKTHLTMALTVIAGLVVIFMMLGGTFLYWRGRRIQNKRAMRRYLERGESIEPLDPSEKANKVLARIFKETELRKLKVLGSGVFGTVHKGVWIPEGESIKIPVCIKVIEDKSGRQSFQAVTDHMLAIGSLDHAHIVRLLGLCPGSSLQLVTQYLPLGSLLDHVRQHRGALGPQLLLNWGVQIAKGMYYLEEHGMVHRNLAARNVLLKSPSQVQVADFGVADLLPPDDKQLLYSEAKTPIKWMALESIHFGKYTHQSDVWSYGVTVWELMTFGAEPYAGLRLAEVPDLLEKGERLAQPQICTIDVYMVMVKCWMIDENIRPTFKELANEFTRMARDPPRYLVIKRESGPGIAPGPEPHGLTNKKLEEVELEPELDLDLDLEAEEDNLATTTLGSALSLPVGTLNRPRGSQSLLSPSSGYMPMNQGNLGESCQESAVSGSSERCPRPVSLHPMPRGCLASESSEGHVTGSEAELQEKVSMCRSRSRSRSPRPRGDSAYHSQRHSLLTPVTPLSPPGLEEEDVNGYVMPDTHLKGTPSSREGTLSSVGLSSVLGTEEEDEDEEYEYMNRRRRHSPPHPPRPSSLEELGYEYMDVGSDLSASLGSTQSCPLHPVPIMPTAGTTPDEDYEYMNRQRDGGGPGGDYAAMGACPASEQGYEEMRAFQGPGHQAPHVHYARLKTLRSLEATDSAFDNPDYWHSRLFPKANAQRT
Briefly: flow cytometry on cells; 0, 0.5, 2, 5 ug IgG with BT-474 cells (250,000 cells/assay); detected with FITC-conjugated anti-human Fc. The settings on record: one partner purified.

Assay [2] deals with T2, intact ERBB3 extracellular domain (dI-IV, aa20-639) (Homo sapiens, UniProt P21860).
T2 construct: ERBB3/HER3 extracellular domain, domains I-IV, aa20-639; also called ERBB3 ECD; intact ERBB3 ECD; source: purified from culture supernatant by IMAC (HisTrap)
T2 sequence (P21860 20-639): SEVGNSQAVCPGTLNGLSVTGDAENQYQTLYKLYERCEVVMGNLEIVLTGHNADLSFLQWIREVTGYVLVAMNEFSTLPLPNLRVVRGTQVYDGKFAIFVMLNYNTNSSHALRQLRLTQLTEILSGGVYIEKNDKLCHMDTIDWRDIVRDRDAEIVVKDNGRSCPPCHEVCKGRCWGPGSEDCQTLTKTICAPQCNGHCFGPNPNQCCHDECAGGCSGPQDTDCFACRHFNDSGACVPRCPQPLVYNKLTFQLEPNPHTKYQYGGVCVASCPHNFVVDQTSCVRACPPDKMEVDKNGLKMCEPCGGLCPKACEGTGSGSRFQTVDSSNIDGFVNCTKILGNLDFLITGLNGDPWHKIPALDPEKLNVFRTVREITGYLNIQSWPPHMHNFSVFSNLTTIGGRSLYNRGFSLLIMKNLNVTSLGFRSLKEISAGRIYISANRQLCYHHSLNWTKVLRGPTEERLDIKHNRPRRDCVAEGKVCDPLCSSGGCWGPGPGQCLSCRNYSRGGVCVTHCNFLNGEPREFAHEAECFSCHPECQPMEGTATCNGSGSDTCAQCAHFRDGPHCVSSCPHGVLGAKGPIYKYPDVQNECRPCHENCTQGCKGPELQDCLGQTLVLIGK
Briefly: ELISA; apparent; ERBB3 extracellular domain immobilised; 4-fold serial dilutions of IgG (1333-0.02 nM); detected with HRP-conjugated anti-human Fc.

Assay [3] addresses T3, ERBB3 extracellular domain I (dI, aa20-207) (Homo sapiens, UniProt P21860).
T3 construct: ERBB3/HER3 domain I, aa20-207; Sub-cloned into pSEC-Tag2/HygroA (vector-supplied secretion signal; the vector may add further tag residues); source: HEK293, stably expressed, purified from culture supernatant (IMAC, HisTrap)
Briefly: native gel or EMSA; IgG (30-40 ug) with dI at 1.5x and 3x molar ratios of IgG:dI, 4 uL reaction, 30 min at room temperature; 12.5% native acrylamide gel (PhastGel), stained; loss of free dI read. To be noted: both partners purified.

Assay [4] has as its target T2, intact ERBB3 extracellular domain …. Nature of the assay: pull-down; called immunoprecipitation: scFv coupled to AminoLink agarose (about 80 ug scFv, 20-50 fold excess) incubated 1 h at room temperature with 5 ug ERBB3 ECD fragment in 40 uL; washed 3x with PBS; supernatant and pellet fractions on SDS-PAGE. The settings on record: both partners purified.
Assay [5] addresses T3, ERBB3 extracellular domain I (dI, …). Described as above. The settings on record: both partners purified.
The target of assay [6] is T4, ERBB3 extracellular domains I-II (dI-II, aa20-329) (Homo sapiens, UniProt P21860).
T4 construct: ERBB3/HER3 domains I-II, aa20-329; Sub-cloned into pSEC-Tag2/HygroA (vector-supplied secretion signal; the vector may add further tag residues); source: HEK293, stably expressed, purified from culture supernatant (IMAC, HisTrap)
T4 sequence (P21860 20-329): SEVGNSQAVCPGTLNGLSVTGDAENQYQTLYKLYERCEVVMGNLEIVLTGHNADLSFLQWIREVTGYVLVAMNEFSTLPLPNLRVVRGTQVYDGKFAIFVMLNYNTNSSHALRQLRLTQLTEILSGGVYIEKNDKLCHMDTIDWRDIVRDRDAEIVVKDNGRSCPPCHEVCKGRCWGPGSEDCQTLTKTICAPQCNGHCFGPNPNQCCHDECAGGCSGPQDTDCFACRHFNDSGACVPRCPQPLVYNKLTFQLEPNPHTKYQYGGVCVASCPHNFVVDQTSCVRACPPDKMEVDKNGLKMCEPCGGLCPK
Described as above. The settings on record: both partners purified.

Assay [7] addresses T5, ERBB3 extracellular domain III (dIII, aa311-477) (Homo sapiens, UniProt P21860).
T5 construct: ERBB3/HER3 domain III, aa311-477; Subcloned into pMTBiPV5HISa (vector-supplied secretion signal; the vector may add further tag residues); source: S2 cells, stably expressed, purified from culture supernatant (IMAC, HisTrap)
The description is as above. The settings on record: both partners purified.

Assay [8] addresses T6, ERBB3 extracellular domains III-IV (dIII-IV, aa310-616) (Homo sapiens, UniProt P21860).
T6 construct: ERBB3/HER3 domains III-IV, aa310-616; source: purified from culture supernatant by IMAC (HisTrap)
The description is as above. The settings on record: both partners purified.

T3 sequence (P21860 20-207): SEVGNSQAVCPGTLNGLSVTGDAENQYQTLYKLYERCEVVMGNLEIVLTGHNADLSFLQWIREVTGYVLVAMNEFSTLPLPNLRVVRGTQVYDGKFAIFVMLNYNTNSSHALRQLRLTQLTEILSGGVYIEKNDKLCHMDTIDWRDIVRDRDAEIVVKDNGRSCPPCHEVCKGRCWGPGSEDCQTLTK
T6 sequence (P21860 310-616): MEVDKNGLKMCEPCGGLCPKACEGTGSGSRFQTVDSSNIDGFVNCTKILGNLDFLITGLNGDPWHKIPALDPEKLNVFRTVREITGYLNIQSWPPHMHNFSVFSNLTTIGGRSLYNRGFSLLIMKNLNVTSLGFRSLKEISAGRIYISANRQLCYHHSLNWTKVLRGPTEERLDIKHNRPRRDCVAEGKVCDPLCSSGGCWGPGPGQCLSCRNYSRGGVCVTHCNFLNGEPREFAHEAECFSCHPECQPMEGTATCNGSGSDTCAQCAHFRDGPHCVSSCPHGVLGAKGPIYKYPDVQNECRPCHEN
T5 sequence (P21860 311-477): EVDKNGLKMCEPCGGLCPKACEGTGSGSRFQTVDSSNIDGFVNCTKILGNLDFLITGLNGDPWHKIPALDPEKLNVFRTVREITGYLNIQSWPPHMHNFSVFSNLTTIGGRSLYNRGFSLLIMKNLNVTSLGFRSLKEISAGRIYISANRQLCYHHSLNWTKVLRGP

B1: F4 anti-ERBB3 IgG (human IgG1 format) (antibody, V domains shown)
VH: QVQLQESGGGLVKPGGSLRLSCAASGFTFSSYAMSWVRQAPGKGLEWVSTISGSGGSTYYADSVKGRFTISRDNSKNTLYLQMNSLRAEDTAVYYCAKGYSSSWSEVASGYWGQGTLVTVSS
VL: DIVMTQSPSSLSASVGDRVTITCRASQGIRNDLGWYQQKAGKAPKLLIYAASSLQSGVPSRFSGSGSGTDFTLTISSLQPDDFATYFCQQAHSFPPTFGGGTKVEIK
notes: F4 variable heavy (Vh) domain; human IgG1 heavy chain constant region; F4 variable light (Vl) domain; light chain constant domain; IgG1; also called F4 IgG; source: purified from conditioned media by protein A chromatography; copies: 2 + 2
With B1, the binding result in assay [1] and in assay [3] was “binds” each time. In addition, the Kd in assay [2] worked out at 4.8 nM.

B2: F4 anti-ERBB3 single-chain Fv (scFv, V domains shown)
VH: B1 VH
VL: B1 VL
notes: F4 variable heavy (Vh) domain; linker of the scFv; F4 variable light (Vl) domain; Coupled to AminoLink agarose in the immunoprecipitations; also called F4 scFv
For B2, the binding result in assay [4], in assay [5] and in assay [6] was “binds” throughout.

B3: A5 anti-ERBB3 IgG (human IgG1 format) (antibody, V domains shown)
VH: QVQLVQSGGGLVKPGGSLRLSCAASGFSFNTYDMNWVRQAPGKGLEWVSSISSSSSYIYYADSVKGRFTISRDNAKNSLYLQMNSLRAEDTAVYYCARDGVATTPFDYWGQGTLVTVSS
VL: QSVLTQPPSVSGAPGQRVTISCTGSSSNIGAGYDVHWYQQLPGTAPKLLIYGNSNRPSGVPDRFSGSKSGTSASLAITGLQAEDEADYYCQSYDSSLSALFGGGTKLTVL
notes: A5 variable heavy (Vh) domain; human IgG1 heavy chain constant region; A5 variable light (Vl) domain; light chain constant domain; IgG1; also called A5 IgG; source: purified from conditioned media by protein A chromatography; copies: 2 + 2
For B3, the binding result was “binds” in assay [1]; “no binding (tested: 1.5x and 3x Molar excess of antibody)” in assay [3]. For the same molecule, the Kd in assay [2] was 11.1 nM.

B4: A5 anti-ERBB3 single-chain Fv (scFv, V domains shown)
VH: B3 VH
VL: B3 VL
notes: A5 variable heavy (Vh) domain; linker of the scFv; A5 variable light (Vl) domain; Coupled to AminoLink agarose in the immunoprecipitations; also called A5 scFv
For the molecule B4, the binding result in assay [4], in assay [7] and in assay [8] was “binds” throughout.
